{"source": "patent US5547932", "molecular_target": "transferrin receptor on NIH3T3 cells and on C2C12 and G8 myoblasts and myotubes (Mus musculus (Mouse)) (UniProt Q62351)", "data": [{"substance": "human transferrin-polylysine conjugate (from UniProt P02787) (ligand)", "values": [{"measurement": "luciferase activity", "result": "< 1", "unit": "log"}]}]}
